# Reference: US20190142971A1, “FORMULATION AND DELIVERY OF MODIFIED NUCLEOSIDE, NUCLEOTIDE, AND NUCLEIC ACID COMPOSITIONS” (ModernaTX, Inc., priority 2013, published 2019)
# B1: G-CSF: modified mRNA encoding human G-CSF, SEQ ID NO: 4, Cap1, fully modified with 5-methylcytosine and pseudouridine; LNP-formulated in Examples 16-22 (nucleic acid)
# chain: GGGAAAUAAGAGAGAAAAGAAGAGUAAGAAGAAAUAUAAGAGCCACCAUGGCCGGUCCCGCGACCCAAAGCCCCAUGAAACUUAUGGCCCUGCAGUUGCUGCUUUGGCACUCGGCCCUCUGGACAGUCCAAGAAGCGACUCCUCUCGGACCUGCCUCAUCGUUGCCGCAGUCAUUCCUUUUGAAGUGUCUGGAGCAGGUGCGAAAGAUUCAGGGCGAUGGAGCCGCACUCCAAGAGAAGCUCUGCGCGACAUACAAACUUUGCCAUCCCGAGGAGCUCGUACUGCUCGGGCACAGCUUGGGGAUUCCCUGGGCUCCUCUCUCGUCCUGUCCGUCGCAGGCUUUGCAGUUGGCAGGGUGCCUUUCCCAGCUCCACUCCGGUUUGUUCUUGUAUCAGGGACUGCUGCAAGCCCUUGAGGGAAUCUCGCCAGAAUUGGGCCCGACGCUGGACACGUUGCAGCUCGACGUGGCGGAUUUCGCAACAACCAUCUGGCAGCAGAUGGAGGAACUGGGGAUGGCACCCGCGCUGCAGCCCACGCAGGGGGCAAUGCCGGCCUUUGCGUCCGCGUUUCAGCGCAGGGCGGGUGGAGUCCUCGUAGCGAGCCACCUUCAAUCAUUUUUGGAAGUCUCGUACCGGGUGCUGAGACAUCUUGCGCAGCCGUGAAGCGCUGCCUUCUGCGGGGCUUGCCUUCUGGCCAUGCCCUUCUUCUCUCCCUUGCACCUGUACCUCUUGGUCUUUGAAUAAAGCCUGAGUAGGAAG
# modifications: Cap1, 5-methylcytosine, pseudouridine
# Legend:
# Format in all cases: in vivo
# mice [1] = experiment: Example 65: G-CSF/EPO mRNA in saline in mice, serum protein at 13 hours (Table 97); conditions: G-CSF group; 100 ug, 100 μl/mouse, F. buffer, 13 hours after injection
# Experimental: The mice were bled at 13 hours after the injection to determine the concentration of the human polypeptide in serum in pg/mL. (G-CSF groups measured human G-CSF in mouse serum and EPO groups measured human EPO in mouse serum).
# mice [2] = experiment: Example 42A: G-CSF/EPO mRNA in buffer IM in mice, serum protein at 13 hours (Table 67); conditions: G-CSF group: human G-CSF in mouse serum, IM 100 ug
# Experimental: The mice were bled at 13 hours after the injection to determine the concentration of the human polypeptide in serum in pg/mL (G-CSF groups measured human G-CSF in mouse serum and EPO groups measured human EPO in mouse serum).
# [3] = tested on: non-human primates (cynomolgus monkey); experiment: Example 22: NHP hematology: neutrophils, reticulocytes, HGB, HCT, RBC (Tables 40-44); conditions: for HCT / RBC: 0.005 mg/kg
# Experimental: LNP formulations, shown in Table 33 (above), were administered to non-human primates (NHP) (cynomolgus monkey) (n=2) as intravenous injection (IV). The NHP were administered a single modified mRNA IV dose of 0.5 mg/kg, 0.05 mg/kg or 0.005 mg/kg of G-CSF or EPO in a dose volume of 0.5 mL/kg. The NHPs were bled before dosing with the modified mRNA LNP formulations to determine protein expression in the serum and a baseline complete blood count. After administration with the G-CSF modified mRNA formulation the NHP were bled at 8, 24, 48 and 72 hours to determined protein expression. After administration with the EPO modified mRNA formulation the NHP were bled at 8, 24, 48, 72 hours and 7 days to determined protein expression.
# Samples collected from the NHPs after they were administered with G-CSF or EPO modified mRNA formulations were analyzed by ELISA to determine protein expression. Neutrophil and reticulocyte count was also determined pre-dose, 24 hours, 3 days, 7 days, 14 days and 18 days after administration of the modified G-CSF or EPO formulation.
molecule,measurement,setting,value
B1,"Average Protein Product, serum (human G-CSF)",mice [1],45 pg/mL
same,"Average Protein Product, serum",mice [2],19.8 pg/mL
same,Female NHP HGB,"[3]; 0.005 mg/kg IV, 14/18 days",129 g/L
same,Female NHP Neutrophils,"[3]; 0.005 mg/kg IV, 14/18 days",2.28 10^9/L
same,Male NHP HGB,"[3]; 0.005 mg/kg IV, 14/18 days",118 g/L
same,Male NHP Neutrophils,"[3]; 0.005 mg/kg IV, 14/18 days",4.31 10^9/L
same,Female NHP HGB,"[3]; 0.005 mg/kg IV, 24 hours",127 g/L
same,Female NHP Neutrophils,"[3]; 0.005 mg/kg IV, 24 hours",8.6 10^9/L
same,Male NHP HGB,"[3]; 0.005 mg/kg IV, 24 hours",117 g/L
same,Male NHP Neutrophils,"[3]; 0.005 mg/kg IV, 24 hours",16.44 10^9/L
same,Female NHP HGB,"[3]; 0.005 mg/kg IV, 3 days",127 g/L
same,Female NHP Neutrophils,"[3]; 0.005 mg/kg IV, 3 days",1.78 10^9/L
same,Male NHP HGB,"[3]; 0.005 mg/kg IV, 3 days",116 g/L
same,Male NHP Neutrophils,"[3]; 0.005 mg/kg IV, 3 days",3.74 10^9/L
same,Female NHP HGB,"[3]; 0.005 mg/kg IV, 7 days",129 g/L
same,Female NHP Neutrophils,"[3]; 0.005 mg/kg IV, 7 days",2.27 10^9/L
same,Male NHP HGB,"[3]; 0.005 mg/kg IV, 7 days",116 g/L
same,Male NHP Neutrophils,"[3]; 0.005 mg/kg IV, 7 days",7.28 10^9/L
same,Female NHP HGB,"[3]; 0.005 mg/kg IV, Pre-dose",129 g/L
same,Female NHP Neutrophils,"[3]; 0.005 mg/kg IV, Pre-dose",2.54 10^9/L
same,Male NHP HGB,"[3]; 0.005 mg/kg IV, Pre-dose",128 g/L
same,Male NHP Neutrophils,"[3]; 0.005 mg/kg IV, Pre-dose",1.52 10^9/L
same,HCT,"[3]; 14/18 days, Female NHP",0.42 L/L
same,RBC,"[3]; 14/18 days, Female NHP",5.34 10^12/L
same,HCT,"[3]; 14/18 days, Male NHP",0.41 L/L
same,RBC,"[3]; 14/18 days, Male NHP",5.37 10^12/L
same,HCT,"[3]; 24 hours, Female NHP",0.42 L/L
same,RBC,"[3]; 24 hours, Female NHP",5.35 10^12/L
same,HCT,"[3]; 24 hours, Male NHP",0.4 L/L
same,RBC,"[3]; 24 hours, Male NHP",5.34 10^12/L
same,HCT,"[3]; 3 days, Female NHP",0.41 L/L
same,RBC,"[3]; 3 days, Female NHP",5.24 10^12/L
same,HCT,"[3]; 3 days, Male NHP",0.4 L/L
same,RBC,"[3]; 3 days, Male NHP",5.32 10^12/L
same,HCT,"[3]; 7 days, Female NHP",0.42 L/L
same,RBC,"[3]; 7 days, Female NHP",5.34 10^12/L
same,HCT,"[3]; 7 days, Male NHP",0.39 L/L
same,RBC,"[3]; 7 days, Male NHP",5.25 10^12/L
same,HCT,"[3]; Pre-dose, Female NHP",0.42 L/L
same,RBC,"[3]; Pre-dose, Female NHP",5.36 10^12/L
same,HCT,"[3]; Pre-dose, Male NHP",0.42 L/L
same,RBC,"[3]; Pre-dose, Male NHP",5.67 10^12/L
same,Female NHP HGB,"[3]; 0.05 mg/kg IV, 14/18 days",123 g/L
same,Female NHP Neutrophils,"[3]; 0.05 mg/kg IV, 14/18 days",1.82 10^9/L
same,Male NHP HGB,"[3]; 0.05 mg/kg IV, 14/18 days",134 g/L
same,Male NHP Neutrophils,"[3]; 0.05 mg/kg IV, 14/18 days",3.59 10^9/L
same,Female NHP HGB,"[3]; 0.05 mg/kg IV, 24 hours",117 g/L
same,Female NHP Neutrophils,"[3]; 0.05 mg/kg IV, 24 hours",29.91 10^9/L
same,Male NHP HGB,"[3]; 0.05 mg/kg IV, 24 hours",122 g/L
same,Male NHP Neutrophils,"[3]; 0.05 mg/kg IV, 24 hours",19.92 10^9/L
same,Female NHP HGB,"[3]; 0.05 mg/kg IV, 3 days",115 g/L
same,Female NHP Neutrophils,"[3]; 0.05 mg/kg IV, 3 days",10.77 10^9/L
same,Male NHP HGB,"[3]; 0.05 mg/kg IV, 3 days",126 g/L
same,Male NHP Neutrophils,"[3]; 0.05 mg/kg IV, 3 days",7.49 10^9/L
same,Female NHP HGB,"[3]; 0.05 mg/kg IV, 7 days",116 g/L
same,Female NHP Neutrophils,"[3]; 0.05 mg/kg IV, 7 days",3.8 10^9/L
same,Male NHP HGB,"[3]; 0.05 mg/kg IV, 7 days",126 g/L
same,Male NHP Neutrophils,"[3]; 0.05 mg/kg IV, 7 days",4.13 10^9/L
same,Female NHP HGB,"[3]; 0.05 mg/kg IV, Pre-dose",129 g/L
same,Female NHP Neutrophils,"[3]; 0.05 mg/kg IV, Pre-dose",3.05 10^9/L
same,Male NHP HGB,"[3]; 0.05 mg/kg IV, Pre-dose",137 g/L
